Measurements published in patent US10618965 (dated 2020).
One block for each binder: values may come before it.

Legend:
Test in all cases: SPR
[1] = molecular target: human FcgRIIIa(V) (human)
[2] = molecular target: T1, human FcgRIIb (human)
T1 chain: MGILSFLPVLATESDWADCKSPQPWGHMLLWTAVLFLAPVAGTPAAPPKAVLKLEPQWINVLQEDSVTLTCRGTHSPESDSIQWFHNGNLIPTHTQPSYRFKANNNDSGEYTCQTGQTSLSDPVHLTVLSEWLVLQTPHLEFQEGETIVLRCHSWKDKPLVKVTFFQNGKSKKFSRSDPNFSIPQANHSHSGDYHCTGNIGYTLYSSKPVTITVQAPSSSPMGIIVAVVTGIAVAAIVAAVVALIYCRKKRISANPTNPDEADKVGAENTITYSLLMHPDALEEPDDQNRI

[3] = molecular target: T2, human FcgRIIa(R) (human)
T2 chain: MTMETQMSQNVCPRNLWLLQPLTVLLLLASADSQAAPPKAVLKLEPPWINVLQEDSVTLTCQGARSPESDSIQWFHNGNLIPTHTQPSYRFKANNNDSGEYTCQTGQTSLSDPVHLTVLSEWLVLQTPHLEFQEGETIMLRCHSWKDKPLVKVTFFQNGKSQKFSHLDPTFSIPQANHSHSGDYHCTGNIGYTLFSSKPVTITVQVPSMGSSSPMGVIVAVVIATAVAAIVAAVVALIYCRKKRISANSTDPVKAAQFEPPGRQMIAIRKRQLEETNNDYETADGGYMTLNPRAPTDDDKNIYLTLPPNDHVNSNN

[4] = molecular target: human FcgRIa (human)
Chain of human FcgRIa (human) (chain, as listed by the source): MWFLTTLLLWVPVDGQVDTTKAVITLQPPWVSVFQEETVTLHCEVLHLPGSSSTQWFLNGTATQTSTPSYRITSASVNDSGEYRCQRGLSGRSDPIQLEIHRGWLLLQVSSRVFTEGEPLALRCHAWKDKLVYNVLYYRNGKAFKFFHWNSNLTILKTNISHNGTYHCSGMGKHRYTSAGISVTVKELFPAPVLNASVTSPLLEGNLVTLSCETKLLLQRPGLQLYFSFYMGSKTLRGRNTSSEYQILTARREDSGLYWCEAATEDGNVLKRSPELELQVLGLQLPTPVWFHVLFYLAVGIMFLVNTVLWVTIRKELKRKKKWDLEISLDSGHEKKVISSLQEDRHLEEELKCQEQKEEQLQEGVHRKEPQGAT

Chain of human FcgRIIIa(V) (human) (chain, as listed by the source): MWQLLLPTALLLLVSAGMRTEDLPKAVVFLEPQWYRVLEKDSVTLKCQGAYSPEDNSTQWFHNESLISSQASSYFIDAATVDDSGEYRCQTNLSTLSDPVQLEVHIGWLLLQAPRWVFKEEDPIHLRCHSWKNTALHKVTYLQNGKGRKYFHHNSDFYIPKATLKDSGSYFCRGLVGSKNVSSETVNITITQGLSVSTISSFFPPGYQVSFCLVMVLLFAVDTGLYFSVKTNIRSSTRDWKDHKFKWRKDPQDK

B1: IL6R-PD082 (antibody)
chain 1: QVQLQESGPGLVKPSETLSLTCAVSGHSISHDHAWSWVRQPPGEGLEWIGFISYSGITNYNPSLQGRVTISRDNSKNTLYLQMNSLRAEDTAVYYCARSLARTTAMDYWGEGTLVTVSSASTKGPSVFPLAPSSKSTSGGTAALGCLVKDYFPEPVTVSWNSGALTSGVHTFPAVLQSSGLYSLSSVVTVPSSSLGTQTYICNVNHKPSNTKVDKKVEPKSCDKTHTCPPCPAPELLGFDSVFLFPPKPKDTLYISRTPEVTCVVVDVSHEDPEVKFNWYVDGVEVHNAKTKPREEQYNSTYRVVSVLTVLHQDWLNGKEYKCKVSNKALPAPIEKTISKAKGQPREPQVYTLPPSRDELTKNQVSLTCLVKGFYPSDIAVEWESNGQPENNYKTTPPVLDSDGSFFLYSKLTVDKSRWQQGNVFSCSVMHEALHYHYTQKSLSLSP
chain 2: DIQMTQSPSSLSASVGDRVTITCRASQDISSYLNWYQQKPGKAPKLLIYYTSRLHSGVPSRFSGSGSGTDFTFTISSLQPEDIATYYCQQGNTLPYTFGQGTKVEIK
Kd [1]: 43000 nM | Kd [2]: 3400 nM | Kd [3]: 14000 nM | Kd [4]: 52 nM

B2: IL6R-PD079 (antibody)
chain 1: QVQLQESGPGLVKPSETLSLTCAVSGHSISHDHAWSWVRQPPGEGLEWIGFISYSGITNYNPSLQGRVTISRDNSKNTLYLQMNSLRAEDTAVYYCARSLARTTAMDYWGEGTLVTVSSASTKGPSVFPLAPSSKSTSGGTAALGCLVKDYFPEPVTVSWNSGALTSGVHTFPAVLQSSGLYSLSSVVTVPSSSLGTQTYICNVNHKPSNTKVDKKVEPKSCDKTHTCPPCPAPELLGADSVFLFPPKPKDTLYISRTPEVTCVVVDVSHEDPEVKFNWYVDGVEVHNAKTKPREEQYNSTYRVVSVLTVLHQDWLNGKEYKCKVSNKALPAPIEKTISKAKGQPREPQVYTLPPSRDELTKNQVSLTCLVKGFYPSDIAVEWESNGQPENNYKTTPPVLDSDGSFFLYSKLTVDKSRWQQGNVFSCSVMHEALHYHYTQKSLSLSP
chain 2: DIQMTQSPSSLSASVGDRVTITCRASQDISSYLNWYQQKPGKAPKLLIYYTSRLHSGVPSRFSGSGSGTDFTFTISSLQPEDIATYYCQQGNTLPYTFGQGTKVEIK
Kd [1]: 37000 nM | Kd [2]: 3000 nM | Kd [3]: 32000 nM | Kd [4]: 140 nM

B8: IL6R-PD095 (antibody)
chain 1: QVQLQESGPGLVKPSETLSLTCAVSGHSISHDHAWSWVRQPPGEGLEWIGFISYSGITNYNPSLQGRVTISRDNSKNTLYLQMNSLRAEDTAVYYCARSLARTTAMDYWGEGTLVTVSSASTKGPSVFPLAPSSKSTSGGTAALGCLVKDYFPEPVTVSWNSGALTSGVHTFPAVLQSSGLYSLSSVVTVPSSSLGTQTYICNVNHKPSNTKVDKKVEPKSCDKTHTCPPCPAPELLGYDSVFLFPPKPKDTLYISRTPEVTCVVVDVSHEDPEVKFNWYVDGVEVHNAKTKPREEQYNSTYRVVSVLTVLHQDWLNGKEYKCKVSNKALPAPIEKTISKAKGQPREPQVYTLPPSRDELTKNQVSLTCLVKGFYPSDIAVEWESNGQPENNYKTTPPVLDSDGSFFLYSKLTVDKSRWQQGNVFSCSVMHEALHYHYTQKSLSLSP
chain 2: DIQMTQSPSSLSASVGDRVTITCRASQDISSYLNWYQQKPGKAPKLLIYYTSRLHSGVPSRFSGSGSGTDFTFTISSLQPEDIATYYCQQGNTLPYTFGQGTKVEIK
Kd [2]: 2300 nM | Kd [3]: 7900 nM | Kd [4]: 93 nM

B9: IL6R-PD086 (antibody)
chain 1: QVQLQESGPGLVKPSETLSLTCAVSGHSISHDHAWSWVRQPPGEGLEWIGFISYSGITNYNPSLQGRVTISRDNSKNTLYLQMNSLRAEDTAVYYCARSLARTTAMDYWGEGTLVTVSSASTKGPSVFPLAPSSKSTSGGTAALGCLVKDYFPEPVTVSWNSGALTSGVHTFPAVLQSSGLYSLSSVVTVPSSSLGTQTYICNVNHKPSNTKVDKKVEPKSCDKTHTCPPCPAPELLGLDSVFLFPPKPKDTLYISRTPEVTCVVVDVSHEDPEVKFNWYVDGVEVHNAKTKPREEQYNSTYRVVSVLTVLHQDWLNGKEYKCKVSNKALPAPIEKTISKAKGQPREPQVYTLPPSRDELTKNQVSLTCLVKGFYPSDIAVEWESNGQPENNYKTTPPVLDSDGSFFLYSKLTVDKSRWQQGNVFSCSVMHEALHYHYTQKSLSLSP
chain 2: DIQMTQSPSSLSASVGDRVTITCRASQDISSYLNWYQQKPGKAPKLLIYYTSRLHSGVPSRFSGSGSGTDFTFTISSLQPEDIATYYCQQGNTLPYTFGQGTKVEIK
Kd [1]: 41000 nM | Kd [2]: 2600 nM | Kd [3]: 18000 nM | Kd [4]: 120 nM

Further binders by falling Kd [2], results first:

Kd [2]: 2300 nM | Kd [3]: 7200 nM | Kd [4]: 36 nM
B3: IL6R-PD094 (antibody)
chain 1: QVQLQESGPGLVKPSETLSLTCAVSGHSISHDHAWSWVRQPPGEGLEWIGFISYSGITNYNPSLQGRVTISRDNSKNTLYLQMNSLRAEDTAVYYCARSLARTTAMDYWGEGTLVTVSSASTKGPSVFPLAPSSKSTSGGTAALGCLVKDYFPEPVTVSWNSGALTSGVHTFPAVLQSSGLYSLSSVVTVPSSSLGTQTYICNVNHKPSNTKVDKKVEPKSCDKTHTCPPCPAPELLGWDSVFLFPPKPKDTLYISRTPEVTCVVVDVSHEDPEVKFNWYVDGVEVHNAKTKPREEQYNSTYRVVSVLTVLHQDWLNGKEYKCKVSNKALPAPIEKTISKAKGQPREPQVYTLPPSRDELTKNQVSLTCLVKGFYPSDIAVEWESNGQPENNYKTTPPVLDSDGSFFLYSKLTVDKSRWQQGNVFSCSVMHEALHYHYTQKSLSLSP
chain 2: DIQMTQSPSSLSASVGDRVTITCRASQDISSYLNWYQQKPGKAPKLLIYYTSRLHSGVPSRFSGSGSGTDFTFTISSLQPEDIATYYCQQGNTLPYTFGQGTKVEIK

Kd [2]: 2000 nM | Kd [3]: 21000 nM | Kd [4]: 140 nM
B5: IL6R-PD080 (antibody)
chain 1: QVQLQESGPGLVKPSETLSLTCAVSGHSISHDHAWSWVRQPPGEGLEWIGFISYSGITNYNPSLQGRVTISRDNSKNTLYLQMNSLRAEDTAVYYCARSLARTTAMDYWGEGTLVTVSSASTKGPSVFPLAPSSKSTSGGTAALGCLVKDYFPEPVTVSWNSGALTSGVHTFPAVLQSSGLYSLSSVVTVPSSSLGTQTYICNVNHKPSNTKVDKKVEPKSCDKTHTCPPCPAPELLGADSVFLFPPKPKDTLYISRTPEVTCVVVDVSHEDPEVKFNWYVDGVEVHNAKTKPREEQYNSTYRVVSVLTVLHQDWLNGKEYKCKVSNKALPAPIEKTISKAKGQPREPQVYTLPPSRDELTKNQVSLTCLVKGFYPSDIAVEWESNGQPENNYKTTPPVLDSDGSFFLYSKLTVDKSRWQQGNVFSCSVMHEALHYHYTQKSLSLSP
chain 2: DIQMTQSPSSLSASVGDRVTITCRASQDISSYLNWYQQKPGKAPKLLIYYTSRLHSGVPSRFSGSGSGTDFTFTISSLQPEDIATYYCQQGNTLPYTFGQGTKVEIK

Kd [2]: 2000 nM | Kd [3]: 16000 nM | Kd [4]: 63 nM
B7: IL6R-PD042 (antibody)
chain 1: QVQLQESGPGLVKPSETLSLTCAVSGHSISHDHAWSWVRQPPGEGLEWIGFISYSGITNYNPSLQGRVTISRDNSKNTLYLQMNSLRAEDTAVYYCARSLARTTAMDYWGEGTLVTVSSASTKGPSVFPLAPSSKSTSGGTAALGCLVKDYFPEPVTVSWNSGALTSGVHTFPAVLQSSGLYSLSSVVTVPSSSLGTQTYICNVNHKPSNTKVDKKVEPKSCDKTHTCPPCPAPEWLGGDSVFLFPPKPKDTLYISRTPEVTCVVVDVSHEDPEVKFNWYVDGVEVHNAKTKPREEQYNSTYRVVSVLTVLHQDWLNGKEYKCKVSNKALPAPIEKTISKAKGQPREPQVYTLPPSRDELTKNQVSLTCLVKGFYPSDIAVEWESNGQPENNYKTTPPVLDSDGSFFLYSKLTVDKSRWQQGNVFSCSVMHEALHYHYTQKSLSLSP
chain 2: DIQMTQSPSSLSASVGDRVTITCRASQDISSYLNWYQQKPGKAPKLLIYYTSRLHSGVPSRFSGSGSGTDFTFTISSLQPEDIATYYCQQGNTLPYTFGQGTKVEIK

Kd [2]: 1600 nM | Kd [3]: 26000 nM | Kd [4]: 75 nM
B6: IL6R-PD043 (antibody)
chain 1: QVQLQESGPGLVKPSETLSLTCAVSGHSISHDHAWSWVRQPPGEGLEWIGFISYSGITNYNPSLQGRVTISRDNSKNTLYLQMNSLRAEDTAVYYCARSLARTTAMDYWGEGTLVTVSSASTKGPSVFPLAPSSKSTSGGTAALGCLVKDYFPEPVTVSWNSGALTSGVHTFPAVLQSSGLYSLSSVVTVPSSSLGTQTYICNVNHKPSNTKVDKKVEPKSCDKTHTCPPCPAPEYLGGDSVFLFPPKPKDTLYISRTPEVTCVVVDVSHEDPEVKFNWYVDGVEVHNAKTKPREEQYNSTYRVVSVLTVLHQDWLNGKEYKCKVSNKALPAPIEKTISKAKGQPREPQVYTLPPSRDELTKNQVSLTCLVKGFYPSDIAVEWESNGQPENNYKTTPPVLDSDGSFFLYSKLTVDKSRWQQGNVFSCSVMHEALHYHYTQKSLSLSP
chain 2: DIQMTQSPSSLSASVGDRVTITCRASQDISSYLNWYQQKPGKAPKLLIYYTSRLHSGVPSRFSGSGSGTDFTFTISSLQPEDIATYYCQQGNTLPYTFGQGTKVEIK

Kd [2]: 1400 nM | Kd [3]: 3500 nM | Kd [4]: 4.9 nM
B4: IL6R-PD097 (antibody)
chain 1: QVQLQESGPGLVKPSETLSLTCAVSGHSISHDHAWSWVRQPPGEGLEWIGFISYSGITNYNPSLQGRVTISRDNSKNTLYLQMNSLRAEDTAVYYCARSLARTTAMDYWGEGTLVTVSSASTKGPSVFPLAPSSKSTSGGTAALGCLVKDYFPEPVTVSWNSGALTSGVHTFPAVLQSSGLYSLSSVVTVPSSSLGTQTYICNVNHKPSNTKVDKKVEPKSCDKTHTCPPCPAPELLGGDDVFLFPPKPKDTLYISRTPEVTCVVVDVSHEDPEVKFNWYVDGVEVHNAKTKPREEQYNSTYRVVSVLTVLHQDWLNGKEYKCKVSNKALPAPIEKTISKAKGQPREPQVYTLPPSRDELTKNQVSLTCLVKGFYPSDIAVEWESNGQPENNYKTTPPVLDSDGSFFLYSKLTVDKSRWQQGNVFSCSVMHEALHYHYTQKSLSLSP
chain 2: DIQMTQSPSSLSASVGDRVTITCRASQDISSYLNWYQQKPGKAPKLLIYYTSRLHSGVPSRFSGSGSGTDFTFTISSLQPEDIATYYCQQGNTLPYTFGQGTKVEIK
